The text below walks through data of patent US20100279930A1 (published 2010).

The chains are these.
B1: 6851 (peptide)
chain: APLEPVYPGDNATPEELVKYYIELRRYINMLTRPRY
B2: 6859 (peptide)
chain: HAPLEPVYPGDNATPEELNHYYASLRRYINMLTRPRY
B3: 6840 (peptide)
chain: AAPLEPVYPGDNATPEELNHYYSALRRYINMLTRPRY
B4: 6841 (peptide)
chain: APLEPVYPGDDATPEELNHYYSALRRYINMLTRPRY
B5: 6803 (peptide)
chain: APLEPMYPGDYATPEQMAQYETQLRRYINTLTRPRY
B6: compound of SEQ ID NO:72 (code 6674) (peptide)
peptide: KPLEPVYPGDNATPEELNRYYASLRRYINMLTRPRY
B7: 6861 (peptide)
chain: PAPLEPVYPGDNATPEELVKYYSALRRYINMLTRPRY
B8: 6862 (peptide)
chain: AAPLEPVYPGDNATPEELVKYYSALRRYINMLTRPRY
B9: 6668 (peptide)
chain: AAPLEPVYPGDNATPEQMAQYAADLRKYINMLTRPRY
B10: 6829 (peptide)
chain: APLEPFYPGDNATPEQMAQYAAELRRYINMLTRPRY
B11: 6823 (peptide)
chain: APLEPVYPGDNATPEQMAQYAAELRRYINMLTRPRY
B12: 6810 (peptide)
chain: APLEPFYPGDNATPEQMAQYAAALRRYINLLTRPRY
B13: 6809 (peptide)
chain: APLEPFYPGDNATPEQMAQYAAALRKYINMLTRPRY
B14: 6815 (peptide)
chain: APLEPVYPGDDATPQQMARYAAELRRYINMLTRPRY
B15: 7163 (peptide)
chain: APLEPVYPGDNATPEELVKYAAELRRYINMLTRPRY
B16: 7105 (peptide)
chain: APLEPVYPGDNATPEELVHYYSALRHYINMLTRPRY
B17: 7103 (peptide)
chain: APLEPVYPGDNATPEELVKYYSALRHYINMLTRPRY
B18: 7113 (peptide)
chain: APLEPVYPGDNATPEELVKYYSALRRYINMLTRHRY
B19: 7124 (peptide)
chain: APLEPVYPGDNATPEEIVKYFIELRRYINMLTRPRY
B20: 7147 (peptide)
chain: AAPLEPFYPGDDATPQQMAHYAAELRRYINTLTRPRY
B21: 7145 (peptide)
chain: PAPLEPFYPGDDATPQQMAHYAAELRRYINMLTRPRY
B22: 7143 (peptide)
chain: PAPLEPFYPGDNATPEQMAHYAADLRRYINTLTRPRY
B23: 7144 (peptide)
chain: AAPLEPFYPGDDATPQQMAHYAAELRRYINMLTRPRY
B24: 7146 (peptide)
chain: HAPLEPFYPGDDATPQQMAHYAAELRRYINMLTRPRY
B25: 7159 (peptide)
chain: GAPLEPVYPGDNATPEQMAHYAAELRRYINTLTRPRY
B26: 7138 (peptide)
chain: AAPLEPVYPGDDATPQQMAHYYSELRRYINMLTRPRY
B27: 7150 (peptide)
chain: PAPLEPEYPGDDATPQQMAHYAAELRRYINMLTRPRY
B28: 7110 (peptide)
chain: PAPLEPVYPGDNATPEELVKYYASLRRYINMLTRPRY
B29: 7108 (peptide)
chain: PAPLEPVYPGDNATPEELVKYYASLRHYINMLTRPRY
B30: 7136 (peptide)
chain: APLEPVYPGDDATPQQMAHYYSELRRYINMLTRPRY
B31: 7121 (peptide)
chain: APLEPVYPGDNATPEEINRYYSALRRYINMLTRPRY
B32: 7109 (peptide)
chain: APLEPVYPGDNATPEELVKYYASLRRYINMLTRPRY
B33: 7114 (peptide)
chain: PAPLEPVYPGDNATPEELVKYYSALRRYINMLTRHRY
B34: 7102 (peptide)
chain: GAPLEPVYPGDNATPEELVKYYSALRRYINMLTRPRY
B35: 7133 (peptide)
chain: PAPLEPVYPGDDATPQEIVHYFIELRRYINTLTRPRY
B36: 7164 (peptide)
chain: APLEPVYPGDNATPEQNLAHYAAELRRYINMLTRPRY
B37: 7137 (peptide)
chain: PAPLEPVYPGDDATPQQMAHYYSELRRYINMLTRPRY
B38: 7139 (peptide)
chain: HAPLEPVYPGDDATPQQMAHYYSELRRYINMLTRPRY
B39: 7217 (peptide)
chain: PAPLEPVYPGDNATPEQMAQYAAALRRYINKLTRPRY
B40: 7216 (peptide)
chain: DAPLEPVYPGDNATPEQMAQYAAALRRYINKLTRPRY
B41: 7158 (peptide)
chain: AAPLEPVYPGDNATPEQMAHYAAELRRYINTLTRPRY
B42: 7117 (peptide)
chain: CAPLEPVYPGDNATPEQMAQYAADLRRYINCLTRPRY
B43: 7219 (peptide)
chain: DAPLEPVYPGDNATPEQMAQYAADLRRYINKLTRPRY
B44: 7220 (peptide)
chain: PAPLEPVYPGDNATPEQMAQYAADLRRYINKLTRPRY
B45: compound of SEQ ID NO:168 (Ala 0, Ala 23 and Lys 30, code 7215) (peptide)
peptide: AAPLEPVYPGDNATPEQMAQYAAALRRYINKLTRPRY
B46: 6866 (peptide)
chain: AAPLEPVYPGDDATPQQMAQYAAELRRYINMLTRPRY
B47: 7162 (peptide)
chain: GAPLEPVYPGDNATPEQMAHYAAELRRYINMLTRPRY
B48: 7161 (peptide)
chain: PAPLEPVYPGDNATPEQMAHYAAELRRYINMLTRPRY
B49: 7101 (peptide)
chain: PLEPVYPGDNATPEELVKYYSALRRYINMLTRPRY
B50: 7231 (peptide)
chain: APLEPKYPGDNATPEQMAQYAAALRRYINKLTRPRY
B51: 7160 (peptide)
chain: APLEPVYPGDNATPEQMAHYAAELRRYINMLTRPRY
B52: 7165 (peptide)
chain: APLEPVYPGDDATPEQMAHYAAELRRYINMLTRPRY
B53: 7230 (peptide)
chain: APLEPKYPGDNATPEQMAQYAAALRRYINMLTRPRY
B54: 7149 (peptide)
chain: APLEPEYPGDDATPQQMAHYAAELRRYINMLTRPRY
B55: compound of SEQ ID NO:167 (code 7214) (peptide)
peptide: APLEPVYPGDNATPEQMAQYAAALRRYINKLTRPRY

The target of the first assay is T1, human Y4 receptor (human, UniProt P50391 1-375). As to the kind of experiment: 125I-PP displacement.
T1 sequence (P50391 whole entry): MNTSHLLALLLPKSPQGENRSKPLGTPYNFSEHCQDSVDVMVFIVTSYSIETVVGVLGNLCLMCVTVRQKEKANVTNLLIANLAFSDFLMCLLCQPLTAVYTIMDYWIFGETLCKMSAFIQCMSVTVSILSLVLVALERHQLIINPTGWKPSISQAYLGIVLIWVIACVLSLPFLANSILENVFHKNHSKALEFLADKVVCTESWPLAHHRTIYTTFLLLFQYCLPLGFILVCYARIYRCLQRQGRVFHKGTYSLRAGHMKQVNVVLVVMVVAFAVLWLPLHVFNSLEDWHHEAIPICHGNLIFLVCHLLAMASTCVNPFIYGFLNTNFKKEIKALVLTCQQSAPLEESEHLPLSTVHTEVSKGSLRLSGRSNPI
Usually IC50 stands for the point on the concentration scale where inhibition reaches its midpoint. A higher IC50 goes with a need for much substance. B1 returned a half-maximal inhibitory concentration (IC50) of 0.11 nM. On to B2, for which the IC50 is 0.15 nM. The same measure, in the same setting: the same measure for B3: 0.17 nM; for B4: 0.16 nM. Same read-out and setting: the same measure for B5: 0.2 nM. On the same count and under the same terms, the same measure for B6: 0.076 nM. Regarding B7, the concentration for half-maximal inhibition (IC50) came out at 0.1 nM. In turn, B8 showed an IC50 of 0.11 nM. On the same count and under the same terms, the same measure for B9: 0.28 nM. Take B10: the IC50 worked out at 0.2 nM. Same read-out and setting: the same measure for B11: 0.13 nM. The same measure, in the same setting: the same measure for B12: 0.11 nM. B13: the IC50 came out at 0.21 nM. Still for that read-out and setting: the same measure for B14: 0.13 nM.

For another assay, the target named is T1, human Y4 receptor. As to the kind of experiment: 125I-PP displacement. This is another data set of the same source.
Turning to B15, the IC50 turned out to be 0.146 nM.

On to B16, for which the IC50 came to 0.15 nM.

Consider B17, for which the 50% inhibitory concentration (IC50) was found to be 0.2 nM.

Consider B18, for which the IC50 is 0.084 nM. Still for that read-out and setting: the same measure for B19: 0.31 nM. The molecule B20 came in with a half-maximal inhibitory concentration (IC50) of 0.148 nM. The same measure, in the same setting: the same measure for B21: 0.165 nM; for B22: 0.188 nM; for B23: 0.216 nM. Still for that read-out and setting: the same measure for B24: 0.149 nM; for B25: 0.165 nM; for B26: 0.13 nM. As for B27, the half-maximal inhibitory concentration (IC50) worked out at 0.169 nM.

The molecule B28 had an IC50 of 0.11 nM.

B29 gave a half-inhibitory concentration (IC50) of 0.25 nM.

With B30, the IC50 worked out at 0.149 nM.

In turn, B31 had a concentration for half-maximal inhibition (IC50) of 0.12 nM.

In the case of B32, the 50% inhibitory concentration (IC50) came out at 0.083 nM. In turn, B33 registered a concentration for half-maximal inhibition (IC50) of 0.166 nM. The molecule B34 came in with an IC50 of 0.114 nM. Molecule B35 had an IC50 of 0.173 nM.

The molecule B36 returned an IC50 of 0.223 nM. On to B37, for which the concentration for half-maximal inhibition (IC50) was 0.072 nM. On to B38, for which the half-inhibitory concentration (IC50) worked out at 0.137 nM. The same measure, in the same setting: the same measure for B39: 0.066 nM; for B40: 0.109 nM; for B41: 0.146 nM.

B42 displayed a concentration for half-maximal inhibition (IC50) of 0.351 nM. As to B43, the IC50 amounted to 0.22 nM. Still for that read-out and setting: the same measure for B44: 0.1 nM; for B45: 0.057 nM. Same read-out and setting: the same measure for B46: 0.17 nM; for B47: 0.219 nM; for B48: 0.188 nM. Same read-out and setting: the same measure for B49: 0.069 nM; for B50: 0.089 nM; for B51: 0.15 nM. Turning to B52, the half-inhibitory concentration (IC50) was determined as 0.183 nM. The same measure, in the same setting: the same measure for B53: 0.21 nM; for B54: 0.119 nM. Same read-out and setting: the same measure for B55: 0.106 nM.
